Laboratory results from patent US20180244779A1 (KADMON, published 2018).

T1: mPD-1-Fc (murine, UniProt Q02242 25-167, limits assumed)
T1 construct: also called murine PD-1; not shown: Fc part
T1 sequence (looked up): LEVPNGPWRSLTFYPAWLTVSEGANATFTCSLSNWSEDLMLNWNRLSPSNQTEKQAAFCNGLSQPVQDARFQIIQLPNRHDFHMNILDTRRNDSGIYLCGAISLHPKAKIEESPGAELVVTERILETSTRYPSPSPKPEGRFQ


What was measured:
hPD-1-Fc = target: T2, hPD-1-Fc (human, UniProt Q15116 25-167, limits assumed); assay: dose-response ELISA, immobilized hPD-1-Fc
T2 construct: It was immobilized on the ELISA plate; also called soluble human PD-1-Fc; not shown: Fc part
Description: (§1) The binding activity of the five antibodies was examined using dose-response ELISA. The serially diluted antibodies were added to immobilized hPD-1-Fc and detected by HRP conjugated anti-hIgG Fab specific antibody. The OD450 reading was plotted vs. log antibody concentration using GraphPad Prism6. EC50 was calculated by using “dose-response” (stimulation) variable slope (four parameters)” program. The antibodies were also added to immobilized mPD-1-Fc and other Fc-fusions to determine specificity for hPD-1-Fc and to immobilized anti-human IgG fc specific antibody (anti-hFc Ab) to check the accuracy of the concentration measurement.

mPD-1-Fc = target: T1, mPD-1-Fc; assay: dose-response ELISA, immobilized mPD-1-Fc
Description: as §1

T2 sequence (Q15116 25-167 limits assumed): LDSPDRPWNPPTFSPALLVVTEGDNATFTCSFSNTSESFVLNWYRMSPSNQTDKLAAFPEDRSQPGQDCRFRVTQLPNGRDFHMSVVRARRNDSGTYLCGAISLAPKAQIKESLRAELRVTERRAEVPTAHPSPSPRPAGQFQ

Binder | binding result (hPD-1-Fc) | binding result (mPD-1-Fc)
R3A2 (antibody, V domains shown) VH: EVQLLESGGGLVQPGGSLRLSCAASGFTFSWYSMLWVRQAPGKGLEWVSRIYPSGGFTYYADSVKGRFTISRDNSKNTLYLQMNSLRAEDTAVYYCARVIDIVGATGRLQHGMDVWGQGTTVTVSS VL: QYELTQPPSVSVAPGQTAKITCGGNNIGSKSVNWYQQKTGQAPVLVVHDDSDRPSGIPERLSGSNSGNTATLTISRAEAGDEADYYCQVWDSVSDHYVFGTGTKVTVLG | binds | –
R3D6 (antibody, V domains shown) VH: EVQLLESGGGLVQPGGSLRLSCAASGFTFSDYNMAWVRQAPGKGLEWVSSIGPSGGNTHYADSVKGRFTISRDNSKNTLYLQMNSLRAEDMAVYYCARERVEYYYYGMDVWGKGTTVTVSS VL: QSALTQAPSVSVAPGQTARITCGGDNIESLSVHWYQQKPGQAPVLVVYDDADRPSGTPERFSGSNSGNTATLTINRAEAGDEADYYCQVWDYSSDVVVFGGGTTLTVLG | binds | –

Second part, the binder after the results:

binding result (hPD-1-Fc) | binding result (mPD-1-Fc) | Binder
binds | – | R3A1 (antibody, V domains shown) VH: EVQLLESGGGLVQPGGSLRLSCAASGFTFSRYHMMWVRQAPGKGLEWVSSIYPSGGYTYYADSVKGRFTISRDNSKNTLYLQMNSLRAEDTAVYYCAREYFSGPDYWGQGTLVTVSS VL: DIQMTQSPSTLSASVGDRVTITCRASQKISRWLAWYQQTPGKAPKLLIYRASDLESGVPSRFSGSGSGTEFTLTISSLQPDDFATYYCQQYNTYPYTFGQGTKLEIKR
binds | binds | R4B3 (antibody, V domains shown) VH: EVQLLESGGGLVQPGGSLRLSCAASGFTFSYYWMSWVRQAPGKGLEWVSYISPSGGMTKYADSVKGRFTISRDNSKNTLYLQMNSLRAEDTAVYYCASASYDYVWGIYHYDVFDIWGQGTMVTVSS VL: DIQMTQSPSSVSASVGDRVTITCRASQGISSWLAWYQQKPGKAPKLLIYAASSLQSGVPSRFSGSGSGTDFTLTISSLQPEDFATYYCQQANSFPLTFGGGTKVEIKR
